Source: article doi:10.1101/2020.06.02.126235

Target: AAV2 OBD (Adeno-associated virus 2, UniProt P03132 1-199)
Test: X-ray crystallography

Sequence of AAV2 OBD (P03132 1-199): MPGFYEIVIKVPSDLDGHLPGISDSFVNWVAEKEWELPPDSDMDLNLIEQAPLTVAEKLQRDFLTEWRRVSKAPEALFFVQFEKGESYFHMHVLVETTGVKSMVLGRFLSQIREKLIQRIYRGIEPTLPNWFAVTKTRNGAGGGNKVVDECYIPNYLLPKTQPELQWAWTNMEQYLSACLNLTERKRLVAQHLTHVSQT

ATATGCTCGCTCTT (ssDNA) [ssRBS 14-mer (Site A)]
binding result: binds
